Consider 1 protein from ChEMBL document CHEMBL2074082, “Characterization of the monocarboxylate transporter 1 expressed in Xenopus laevis oocytes by changes in cytosolic pH” (Biochem J, 1998).

Common to all, as to type: functional, cell-based
Common to all, as to settings: Oocyte

Substrate in series [1]: C[C@@H](O)C(=O)O
The series is described as follows: (§1) TP_TRANSPORTER: change in intracellular pH(pHi)value in Xenopus laevis oocytes.

Substrate in series [2]: CC(=O)C(=O)O
The description is as §1.

Substrate in series [3]: CC(C)C(=O)C(=O)O
Described as §1.

Substrate in series [4]: CC(C)CC(=O)C(=O)O
The description is as §1.

B1: Monocarboxylate transporter 1 (Rattus norvegicus), P53987 (protein)
chain: MPPAIGGPVGYTPPDGGWGWAVVVGAFISIGFSYAFPKSITVFFKEIEIIFSATTSEVSWISSIMLAVMYAGGPISSILVNKYGSRPVMIAGGCLSGCGLIAASFCNTVQELYFCIGVIGGLGLAFNLNPALTMIGKYFYKKRPLANGLAMAGSPVFLSTLAPLNQAFFGIFGWRGSFLILGGLLLNCCVAGSLMRPIGPQQGKVEKLKSKESLQEAGKSDANTDLIGGSPKGEKLSVFQTVNKFLDLSLFTHRGFLLYLSGNVVMFFGLFTPLVFLSNYGKSKHFSSEKSAFLLSILAFVDMVARPSMGLAANTRWIRPRVQYFFAASVVANGVCHLLAPLSTTYVGFCIYAGVFGFAFGWLSSVLFETLMDLVGPQRFSSAVGLVTIVECCPVLLGPPLLGRLNDMYGDYKYTYWACGVILIIAGLYLFIGMGINYRLVAKEQKAEEKKRDGKEDETSTDVDEKPKKTMKETQSPAPLQNSSGDPAEEESPV
With B1, the Km – broadly, the concentration of substrate that gives half-maximal velocity – in series [1] came to 3500 µM; in series [2], 1010 µM; in series [3], 1250 µM; in series [4] it was 670 µM.
